The text below walks through data of paper PMC6459835, “The RNA binding activity of the first identified trypanosome protein with Z-DNA-binding domains”.

Series [1] has as its target T1, RBP7910 WT (Trypanosoma brucei, UniProt Q38AH3 9-189).
T1 sequence: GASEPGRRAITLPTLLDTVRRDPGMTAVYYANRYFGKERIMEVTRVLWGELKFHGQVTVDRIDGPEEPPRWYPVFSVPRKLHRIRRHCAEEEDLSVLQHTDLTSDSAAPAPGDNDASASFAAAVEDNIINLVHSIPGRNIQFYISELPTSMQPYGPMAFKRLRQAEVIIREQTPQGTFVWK
Put plainly: EMSA. To be noted: RBB50: 20 mM Tris-HCl pH 7.6, 50 mM KCl, 5 mM MgCl2, 100 mg/mL BSA (so in the source), 10% glycerol, 1 mM DTT, plus 100 mM KCl and 20 U RNasin, 20 ul, 30 min, RT ….

The target in series [2] is T2, RBP7910 WT (Trypanosoma brucei) (UniProt Q38AH3).
T2 sequence: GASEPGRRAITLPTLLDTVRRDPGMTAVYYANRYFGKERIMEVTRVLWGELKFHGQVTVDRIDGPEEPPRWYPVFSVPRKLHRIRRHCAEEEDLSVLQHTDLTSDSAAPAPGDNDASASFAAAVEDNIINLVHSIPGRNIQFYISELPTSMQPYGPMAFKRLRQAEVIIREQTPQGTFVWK
The experiment in a line: competition. Conditions: RBB50: 20 mM Tris-HCl pH 7.6, 50 mM KCl, 5 mM MgCl2, 100 mg/mL BSA (so in the source), 10% glycerol, 1 mM DTT, plus 100 mM KCl and 20 U RNasin, 20 ul, 30 min, RT ….

For series [3], the target named is T1, RBP7910 WT. The experiment in a line: competition. Conditions: RBB50: 20 mM Tris-HCl pH 7.6, 50 mM KCl, 5 mM MgCl2, 100 mg/mL BSA (so in the source), 10% glycerol, 1 mM DTT, plus 100 mM KCl and 20 U RNasin; 20 ul, 30 min, RT ….
Series [4] has as its target T1, RBP7910 WT. The experiment in a line: competition; vs labeled gA6[14]; RBB50: 20 mM Tris-HCl pH 7.6, 50 mM KCl, 5 mM MgCl2, 100 mg/mL BSA (so in the source), 10% glycerol, 1 mM DTT, plus 100 mM KCl and 20 U RNasin; 20 ul, 30 min, RT; native 10% TBE gel at 4 C. Conditions: protein: recombinant; tags: N-terminal 6xHis (pET30-a); label: unlabeled; one predicted stem-loop, 3' oligo(U) tail.

Series [5] deals with T1, RBP7910 WT. The experiment in a line: EMSA; 95% CI 1.25-1.97; RBB50: 20 mM Tris-HCl pH 7.6, 50 mM KCl, 5 mM MgCl2, 100 mg/mL BSA (so in the source), 10% glycerol, 1 mM DTT, plus 100 mM KCl and 20 U RNasin; 20 ul, 30 min, RT; native 10% TBE gel at 4 C. To be noted: protein: recombinant; tags: N-terminal 6xHis (pET30-a); label: 32P (UTP body or 3' pCp). (In EMSA bound probe runs differently from free probe, usually more slowly.)

Series [6] has as its target T1, RBP7910 WT. The experiment in a line: EMSA; 1 nM labeled RNA, protein titration; specificity confirmed with unlabeled poly AU; RBB50: 20 mM Tris-HCl pH 7.6, 50 mM KCl, 5 mM MgCl2, 100 mg/mL BSA (so in the source), 10% glycerol, 1 mM DTT, plus 100 mM KCl and 20 U RNasin; 20 ul, 30 min, RT; native 10% TBE gel at 4 C. Conditions: protein: recombinant; tags: N-terminal 6xHis (pET30-a); label: 32P.

For gA6[14] (delta16G) gRNA with U-tail, in the series with RBP7910 WT [1] (95% CI 0.18-0.27), the dissociation constant Kd stood at 0.21 nM.
As to “GGGAUUAAAAGACAAUGUGAAUUUCUUAAGGUAAUAAAGGGAAUAAUUUUUUUUUUUUUUUU [natural CYb gRNA (gCYb[558]) with U-tail]”, the binding signal (% reduction of bound labeled gA6[14]) in series [2] turned out to be 50.
“GGGGGGACUGACAUUAAAAGAAAUGUGAAUUUUUCUCCGCUUUU [42-mer CYb gRNA (gCYb[558] USD-2A-42nt), no U-tail]”: in series [2] (scale: fold less efficient competitor than natural gCYb), the binding signal stood at 10.
On to CYb pre-edited mRNA, for which the binding signal (% reduction of bound labeled gA6[14]) with RBP7910 WT [3] worked out at 50. In the series with RBP7910 WT [1] (95% CI 2.09-3.66), the Kd was 2.78 nM.
Consider poly U RNA, for which, in the series with RBP7910 WT [3], the binding signal (% reduction of bound labeled poly AU) worked out at 50.

B1: uridylated non-guide RNA (49 nt) (structured_RNA)
RNA: GGGUACCAGAUACAUACUAAGGAAUUCGAUAUCACUAUUUUUUUUUUUUUU
As for B1, in the series with RBP7910 WT [4], the binding signal was 10 fold less efficient competitor than gA6[14].

B2: CYb edited mRNA (ssRNA)
RNA: GGGAAAUAUGUUUUUUCGUGUUAGAUUUUUGUUAUUUUUUUUAUUAUUUAGAAAUUUAUGUUGUCUUUUUA
With B2, in the series with RBP7910 WT [5], the Kd amounted to 1.57 ± 0.06 nM.

B3: poly AU RNA (ssRNA)
RNA: GGGAUUCUUUUCGAGUCUCUUUUAUUUAUUUAUUUAUUUAUUUUUUCUCUCUUAUU
For B3, the binding result with RBP7910 WT [6] was “binds”.

Usually Kd stands for the free concentration of one partner at which half of the binding sites on the other are occupied at equilibrium, for simple one-to-one binding.
